Experimental data from PMC10234438.

System: IMP3 (GST-/His-tagged) (human)
Test: EMSA
Conditions: EMSA: 10 mM Tris-HCl pH 7.5, 150 mM NaCl, 0.5 mM EDTA, 0.5 mM DTT, 0.1% NP-40, 5% glycerol, RNaseOUT, 1 ug tRNA, 1 ug BSA; 5 nM RNA; 30 min at 25 C, then 5 min …

| Substance | Kd |
| --- | --- |
| 101-mer linear | 9.3 nM |
| ANKRD17 linear | 8.7 nM |
| all-UG linear | 48.8 nM |

Same assay, conditions: circular (T4 RNA ligase); EMSA: 10 mM Tris-HCl pH 7.5, 150 mM NaCl, 0.5 mM EDTA, 0.5 mM DTT, 0.1% NP-40, 5% glycerol, RNaseOUT, 1 ug tRNA, 1 ug BSA; 5 nM RNA; 30 min at 25 C, then 5 min …

| Substance | Kd |
| --- | --- |
| 101-mer circRNA | 10.4 nM |
| ANKRD17 circRNA | 8.5 nM |
| all-UG circRNA | 60.3 nM |
